According to patent publication US20110212075A1, “SCREENING METHOD FOR POLYMORPHIC MARKERS IN HTRA1 GENE IN NEURODEGENERATIVE DISORDERS” (SIEMENS AKTIENGESELLSCHAFT, priority 2007, published 2011):

Tests used:
HtrA1 = target: T1, HtrA1 (Homo sapiens, UniProt Q92743); experiment: HtrA1 activation by peptides (degradation of wt-tau, SDS/PAGE); format: biochemical; conditions: peptide 200 μM in DMSO, HtrA1 (0.04 μg) preincubated 10 minutes at 37° C., wt-tau (2 μg) 10 minutes at 37° C., Coomassie gel, FIG. 18
T1 construct: made in house; host or cells: Escherichia coli BL21 D3+
T1 sequence (Q92743 158-480 limits assumed): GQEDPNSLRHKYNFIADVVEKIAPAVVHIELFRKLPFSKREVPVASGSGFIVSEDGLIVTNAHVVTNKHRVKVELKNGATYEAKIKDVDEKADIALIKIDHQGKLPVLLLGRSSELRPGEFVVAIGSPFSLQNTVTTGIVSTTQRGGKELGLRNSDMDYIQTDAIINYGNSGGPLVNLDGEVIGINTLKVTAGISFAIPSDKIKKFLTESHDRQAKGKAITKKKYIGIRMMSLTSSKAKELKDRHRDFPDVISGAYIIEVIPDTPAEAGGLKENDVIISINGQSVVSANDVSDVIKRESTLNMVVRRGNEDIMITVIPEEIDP
Method: Purified wt-tau (2 μg) was incubated with HtrA1 (0.04 μg) for 10 minutes at 37° C. HtrA1 was preincubated with different peptides for 10 minutes at 37° C. All peptides were dissolved in DMSO and added to a final concentration of 200 μM. Wt-tau was incubated with DQLAFHQFYI (lane 1), KKKDSRIWWV (lane 2) and with HtrA1 and DMSO as a control (lane 3). Samples were loaded on a SDS/PAGE. The gel was stained with Coomassie Blue.
(§1) HtrA1 interacts with presenilin 1 (PS1). This was evident from data obtained from copurification, comigration during size exclusion chromatography and two hybrid analyses. […] Such a peptide could be used as a basis to synthesise a potent HtrA1 activator that could be of therapeutic relevance. […] This peptide did however not bind to HtrA1 composed of protease and PDZ domain as shown by Isothermal Titration calorimetry. Only after adding […] residues, the peptide did bind to HtrA1.

PDZ domain of HtrA1 = PDZ domain of HtrA1 (Homo sapiens, UniProt Q92743); conditions: Runyon et al. Protein Sci. 16:2454-71 (2007); cited from earlier work
Chain of PDZ domain of HtrA1 (Q92743 365-467 limits assumed): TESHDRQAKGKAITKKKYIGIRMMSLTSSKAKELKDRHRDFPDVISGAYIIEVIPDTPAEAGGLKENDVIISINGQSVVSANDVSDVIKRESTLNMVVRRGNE

[1] = target: T2, HtrA1 composed of protease and PDZ domain (Homo sapiens, UniProt Q92743); experiment: Binding of peptide to HtrA1 by Isothermal Titration calorimetry
T2 construct: HtrA1 composed of protease and PDZ domain
T2 sequence (Q92743 158-480 limits assumed): as the sequence (Q92743 158-480 limits assumed) above
Source text: as §1

Row | Substance | activation of HtrA1 as shown by a more efficient degradation of tau (HtrA1) | binding to the PDZ domain of HtrA1 (PDZ domain of HtrA1) | binding to HtrA1 [1]
1 | DQLAFHQFYI [peptide comprised of the 10 C-terminal residues of PS1 (presenilin 1)] | activate HtrA1 |  | 
2 | DSRIWWV [reference compound] |  | excellent binding | not bind
3 | KKKDSRIWWV [second peptide, DSRIWWV with 3 added N-terminal residues] | weaker activator |  | did bind
